Assay results: patent publication US20260166139A1 (AKESO BIOPHARMA, published 2026)
Where a chain is given by its changes, count along the chain named.

T1: CTLA4 antigen (NCBI Gene ID: 1493) obtained by TEV protease cleavage of CTLA4-mFc (Homo sapiens (Human), UniProt P16410 37-161)
T1 construct: also called the antigen CTLA4
T1 sequence: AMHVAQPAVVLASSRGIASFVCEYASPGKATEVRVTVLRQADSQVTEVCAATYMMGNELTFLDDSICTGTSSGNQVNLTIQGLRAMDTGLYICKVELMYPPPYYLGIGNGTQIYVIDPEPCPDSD

T2: human CTLA4 (human, UniProt P16410 36-161, limits assumed)
T2 construct: also called human CTLA4 antigen; CTLA4 protein
T2 sequence (looked up): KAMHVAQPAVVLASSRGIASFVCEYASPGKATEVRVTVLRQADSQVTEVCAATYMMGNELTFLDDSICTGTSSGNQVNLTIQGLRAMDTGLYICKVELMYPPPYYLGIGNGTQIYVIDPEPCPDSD

T3: CTLA4 antigen on the surface of 293F-CTLA4 host cells (UniProt P16410 36-223, limits assumed)
T3 construct: whole, on cells
T3 sequence (looked up): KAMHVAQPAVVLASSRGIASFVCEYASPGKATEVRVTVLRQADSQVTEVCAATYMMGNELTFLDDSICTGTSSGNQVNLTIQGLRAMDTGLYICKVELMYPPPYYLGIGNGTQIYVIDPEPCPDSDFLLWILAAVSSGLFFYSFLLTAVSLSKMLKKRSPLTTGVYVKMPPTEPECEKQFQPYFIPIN

B1: humanized antibody 8D2H2L15 (antibody, V domains shown)
VH: EVQLVESGGGLVQPGGSMRLSCAASGFTFSDNWMNWVRQAPGKGLEWLAQIRNKPYNYETYYSASVKGRFTISRDDSKNSVYLQMNSLKTEDTGVYYCTAQFAYWGQGTLVTVSS
VL: DIQMTQSPSSLSASVGDRVTITCRTSENIYGGLNWYQRKPGKSPKLLIYGATNLASGVSSRFSGSGSGTDYTLTISSLQPEDVATYYCQNVLSRHPGFGSGTKLEIK
B2: humanized antibody 8D2H2L2 (antibody, V domains shown)
VH: B1 VH
VL: B1 VL with S93R, R94S, H95P, P96F, G97T
notes: also called 8D2H2L2(20150327); 8D2H2L2(20140422)
B3: humanized antibody 8D2H3L3 (antibody, V domains shown)
VH: B1 VH with M18L, L48V, Y61E, S63A, V81A, G94A
VL: DIQMTQSPSSLSASVGDRVTITCRASENIYGGLNWYQQKPGKAPKLLIYGATSLASGVPSRFSGSGSGTDYTLTISSLQPEDFATYYCQNVLRSPFTFGSGTKLEIK
B4: humanized antibody 8D2H3L3 (antibody, V domains shown)
VH: B1 VH with M18L, L48V, Y61E, S63A, V81A, G94A
VL: B3 VL
B5: humanized antibody 8D2H2L17 (antibody, V domains shown)
VH: B1 VH
VL: B1 VL with R94S, H95R
B6: humanized antibody 8D2H1L1 (antibody, V domains shown)
VH: B1 VH with A64D
VL: B1 VL with P40Q, V58M, T74K, Q79H, E81D, S93R, R94S, H95P, P96F, G97T
B7: control antibody 10D1 (antibody, V domains shown)
VH: QVQLVESGGGVVQPGRSLRLSCAASGFTFSSYTMHWVRQAPGKGLEWVTFISYDGNNKYYADSVKGRFTISRDNSKNTLYLQMNSLRAEDTAIYYCARTGWLGPFDYWGQGTLVTVSS
VL: not shown
B8: 8D2 recombinant antibody, 8D2(Re) (antibody, V domains shown)
VH: EVKLDETGGGLVQPGRPMKLSCVASGFTFSDNWMNWVRQSPEKGLEWLAQIRNKPYNYETYYSDSVKGRFTISRDDSKSSVYLQMNNLRGEDMGIYYCTAQFAYWGQGTLVTVSA
VL: DIQMTQSPASLSASVGETVTITCGTSENIYGGLNWYQRKQGKSPQLLIFGATNLADGMSSRFSGSGSGRQYSLKISSLHPDDVATYYCQNVLRSPFTFGSGTKLEI
B9: 8D2 recombinant antibody, 8D2(Re) (antibody, V domains shown)
VH: B8 VH
VL: B8 VL
B10: monoclonal antibody 8D2 (antibody, V domains shown)
VH: B8 VH
VL: B8 VL
notes: Murine antibody purified from hybridoma supernatant; also called mAb 8D2; antibody secreted by the CTLA4-8D2 hybridoma cell line LT001

Legend:
[1] = biological target: T1, CTLA4 antigen (NCBI Gene ID: 1493) …; experiment: BLI (Fortebio), antibody on AR2G sensor, CTLA4 in solution
Protocol: 2. […] After equilibration in PBST, the CTLA4 antigen was added for binding. […] Dissociation occurred in PBST.

human CTLA4 = biological target: T2, human CTLA4; experiment: ELISA on coated CTLA4, source Human
Protocol: (§1) The ELISA plate was coated with CTLA4 at 4° C. over night. […] The enzyme conjugated secondary antibody was added for incubation for 30 min. Then, the absorbance at 450 nm was determined on an ELISA plate reader.

CTLA4-mFc [2] = biological target: T4, CTLA4-mFc; experiment: competitive ELISA, competitor B7-1; third of three tests
T4 construct: also called CTLA4ECD-mFc fusion protein; CTLA4 antigen
Protocol: (§2) After incubation at 37° C. for 40 minutes, the enzyme conjugated secondary antibody was added. After incubation at 37° C. for 30 minutes, the absorbance at 450 nm was detected on an ELISA plate reader.

CTLA4-mFc [3] = biological target: T4, CTLA4-mFc; experiment: competitive ELISA, competitor B7-1; first of three tests; competitor B7-1; first of three tests, the run with controls 10D1 5.15 nM and 11.2.1 1.073 nM
Protocol: as §2

CTLA4-mFc [4] = biological target: T4, CTLA4-mFc; experiment: competitive ELISA, competitor B7-1; second of three tests
Protocol: as §2

CTLA4-mFc [5] = biological target: T4, CTLA4-mFc; experiment: competitive ELISA, competitor B7-2; third of three tests
Protocol: as §2

CTLA4-mFc [6] = biological target: T4, CTLA4-mFc; experiment: competitive ELISA, competitor B7-2; second of three tests
Protocol: as §2

CTLA4-mFc [7] = biological target: T4, CTLA4-mFc; experiment: competitive ELISA, competitor B7-2; first of three tests
Protocol: as §2

CTLA4-mFc [8] = biological target: T4, CTLA4-mFc; experiment: competitive ELISA, CTLA4-mFc coated, competitor B7/2-His; antibody 1 µg/ml
Protocol: as §2

[9] = biological target: T3, CTLA4 antigen on the surface of …; experiment: flow cytometry, 293F-CTLA4 cells; antibody 10 nM
Protocol: (§3) After addition of 300 μL PBS, the fluorescent signal was detected using the FITC channel on the flow cytometer.

[10] = biological target: T3, CTLA4 antigen on the surface of …; experiment: flow cytometry, 293F-CTLA4 cells; antibody 0.1 nM
Protocol: as §3

monkey CTLA4-hFc = biological target: T5, monkey CTLA4-hFc (monkey); experiment: ELISA on coated CTLA4, source Monkey
T5 construct: also called monkey CTLA4 antigen
Protocol: as §1

[11] = biological target: T3, CTLA4 antigen on the surface of …; experiment: flow cytometry, 293F-CTLA4 cells
Protocol: as §3

[12] = biological target: T3, CTLA4 antigen on the surface of …; experiment: flow cytometry, 293F-CTLA4 cells; antibody 1 nM
Protocol: as §3

[13] = biological target: T3, CTLA4 antigen on the surface of …; experiment: flow cytometry, 293F-CTLA4 cells; antibody 5 nM
Protocol: as §3

[14] = biological target: T3, CTLA4 antigen on the surface of …; experiment: flow cytometry, 293F-CTLA4 cells; antibody 0.01 nM
Protocol: as §3

[15] = biological target: T3, CTLA4 antigen on the surface of …; experiment: flow cytometry, 293F-CTLA4 cells; antibody 0.001 nM
Protocol: as §3

[16] = biological target: T3, CTLA4 antigen on the surface of …; experiment: flow cytometry, 293F-CTLA4 cells; antibody 25 nM
Protocol: as §3

CTLA4-mFc [17] = biological target: T4, CTLA4-mFc; experiment: competitive ELISA, competitor B7-2
Protocol: as §2
Target sequence in this assay (chain, as listed by the source limits assumed): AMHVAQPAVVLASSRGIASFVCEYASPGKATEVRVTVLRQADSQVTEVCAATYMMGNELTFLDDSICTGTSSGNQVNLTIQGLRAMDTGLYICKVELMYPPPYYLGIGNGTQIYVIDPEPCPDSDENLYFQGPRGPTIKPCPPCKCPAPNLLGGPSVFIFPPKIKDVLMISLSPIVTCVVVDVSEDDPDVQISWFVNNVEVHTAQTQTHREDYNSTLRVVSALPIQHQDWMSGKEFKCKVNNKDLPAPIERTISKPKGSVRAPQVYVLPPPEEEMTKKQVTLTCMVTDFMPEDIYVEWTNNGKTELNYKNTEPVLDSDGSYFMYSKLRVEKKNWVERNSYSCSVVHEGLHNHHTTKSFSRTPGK

CTLA4-mFc [18] = biological target: T4, CTLA4-mFc; experiment: competitive ELISA, competitor B7-1
Protocol: as §2
Target sequence in this assay (chain, as listed by the source limits assumed): as above

CTLA4-mFc [19] = biological target: T4, CTLA4-mFc; experiment: competitive ELISA, competitor B7-2; control run with 8D2
CTLA4-mFc [20] = biological target: T4, CTLA4-mFc; experiment: competitive ELISA, competitor B7-2; control run with 8D2H2L2
CTLA4-mFc [21] = biological target: T4, CTLA4-mFc; experiment: competitive ELISA, competitor B7-1; control run with 8D2H1L1
CTLA4-mFc [22] = biological target: T4, CTLA4-mFc; experiment: competitive ELISA, competitor B7-2; control run with 8D2(Re)
CTLA4-mFc [23] = biological target: T4, CTLA4-mFc; experiment: competitive ELISA, competitor B7-1; control run with 8D2H3L3
CTLA4-mFc [24] = biological target: T4, CTLA4-mFc; experiment: competitive ELISA, competitor B7-1; control run with 8D2H2L17
CTLA4-mFc [25] = biological target: T4, CTLA4-mFc; experiment: competitive ELISA, competitor B7-1; control run with 8D2H2L15
CTLA4-mFc [26] = biological target: T4, CTLA4-mFc; experiment: competitive ELISA, competitor B7-2; control run with 8D2H3L3
CTLA4-mFc [27] = biological target: T4, CTLA4-mFc; experiment: competitive ELISA, competitor B7-2; control run with 8D2H1L1
CTLA4-mFc [28] = biological target: T4, CTLA4-mFc; experiment: competitive ELISA, competitor B7-2; control run with 8D2H2L15
CTLA4-mFc [29] = biological target: T4, CTLA4-mFc; experiment: competitive ELISA, CTLA4-mFc coated, competitor B7/2-His; antibody 1 µg/ml diluted 1:3
Protocol: as §2

CTLA4-mFc [30] = biological target: T4, CTLA4-mFc; experiment: competitive ELISA, competitor B7-1; control run with 8D2H2L2
CTLA4-mFc [31] = biological target: T4, CTLA4-mFc; experiment: competitive ELISA, competitor B7-2; control run with 8D2H2L17

Binder | Kd [1] | koff [1] | kon [1] | EC50 (human CTLA4) | fluorescence intensity [9] | fluorescence intensity [10] | EC50 [11] | fluorescence intensity [12] | fluorescence intensity [13] | fluorescence intensity [14] | fluorescence intensity [15] | fluorescence intensity [16] | EC50 (CTLA4-mFc [17]) | EC50 (CTLA4-mFc [18]) | also measured
B1 | 1.02 nM | 0.000465 s⁻¹ | 454000 M⁻¹ s⁻¹ | 0.042 nM |  |  |  |  |  |  |  |  |  |  | 
B2 |  |  |  |  |  |  |  |  |  |  |  |  |  |  | EC50 (CTLA4-mFc [2]): 3.12 nM; EC50 (CTLA4-mFc [3]): 5.93 nM; EC50 (CTLA4-mFc [4]): 2.97 nM; EC50 (CTLA4-mFc [5]): 0.301 nM; EC50 (CTLA4-mFc [6]): 0.368 nM; EC50 (CTLA4-mFc [7]): 1.64 nM; absorbance at 450 nm (CTLA4-mFc [8]): 0.05
B3 | 1.05 nM | 0.000327 s⁻¹ | 312000 M⁻¹ s⁻¹ | 0.129 nM | 1080 | 108 | 4.54 nM | 623 | 971 | 25.1 | 10.8 | 1090 |  |  | EC50 (monkey CTLA4-hFc): 0.385 nM
B4 |  |  |  |  |  |  |  |  |  |  |  |  | 0.167 nM | 2.14 nM | 
B5 | 0.766 nM | 0.000352 s⁻¹ | 459000 M⁻¹ s⁻¹ | 0.047 nM |  |  |  |  |  |  |  |  |  |  | 
B6 |  |  |  |  |  |  |  |  |  |  |  |  | 0.178 nM | 2.48 nM | 
B7 |  |  |  |  |  |  |  |  |  |  |  |  |  |  | EC50 (CTLA4-mFc [19]): 0.464 nM; EC50 (CTLA4-mFc [20]): 2.06 nM; EC50 (CTLA4-mFc [21]): 1.91 nM; EC50 (CTLA4-mFc [22]): 0.464 nM; EC50 (CTLA4-mFc [23]): 5.15 nM; EC50 (CTLA4-mFc [24]): 4.59 nM; EC50 (CTLA4-mFc [25]): 4.59 nM; EC50 (CTLA4-mFc [26]): 2.06 nM; EC50 (CTLA4-mFc [27]): 0.464 nM; EC50 (CTLA4-mFc [28]): 0.629 nM; absorbance at 450 nm (CTLA4-mFc [29]): 0.07; EC50 (CTLA4-mFc [30]): 5.15 nM; EC50 (CTLA4-mFc [31]): 0.629 nM; absorbance at 450 nm (CTLA4-mFc [8]): 0.05
B8 |  |  |  |  |  |  |  |  |  |  |  |  | 0.153 nM | 0.514 nM | 
B9 |  |  |  |  | 898 | 66.7 | 1.38 nM | 321 | 714 | 24.7 | 24.6 | 873 |  |  | 
B10 | 0.166 nM | 2.36e-05 s⁻¹ | 142000 M⁻¹ s⁻¹ |  | 639 | 9.1 | 3.84 nM | 25.5 | 183 | 7.7 | 7.6 | 722 |  |  | 
